Source: patent EP2182008A2
Each block holds one binder with its values, some of them ahead of it.

Assays:
[1] = biological target: LFA-1 leucine zipper fusion protein (UniProt P20701); assay: ELISA, CAM/Ig on captured integrin
[2] = biological target: soluble human αd/CD18 leucine zipper heterodimer (human) (UniProt P05107); assay: ELISA, CAM/Ig on αd/CD18LZ captured with 212D

fold above background [1]: 10 fold
B1: ICAM-2/Ig (Fc fusion, part only; not given: Ig Fc portion, UniProt P13598 25-223, looked up, part only)
chain, part: KVFEVHVRPKKLAVEPKGSLEVNCSTTCNQPEVGGLETSLDKILLDEQAQWKHYLVSNISHDTVLQCHFTCSGKQESMNSNVSVYQPPRQVILTLQPTLVAVGKSFTIECRVPTVEPLDSLTLFLFRGNETLHYETFGKAAPAPQEATATFNSTADREDGHRNFSCLAVLDLMSRGGNIFHKHSAPKMLEIYEPVSDSQ

fold increase in signal above background [2]: 5 fold
B2: VCAM-1/IgG1 fusion protein (seven extracellular immunoglobulin-like domains) (Fc fusion, UniProt P19320 25-698, looked up, not shown: a dimerising Fc or GST)
chain: FKIETTPESRYLAQIGDSVSLTCSTTGCESPFFSWRTQIDSPLNGKVTNEGTTSTLTMNPVSFGNEHSYLCTATCESRKLEKGIQVEIYSFPKDPEIHLSGPLEAGKPITVKCSVADVYPFDRLEIDLLKGDHLMKSQEFLEDADRKSLETKSLEVTFTPVIEDIGKVLVCRAKLHIDEMDSVPTVRQAVKELQVYISPKNTVISVNPSTKLQEGGSVTMTCSSEGLPAPEIFWSKKLDNGNLQHLSGNATLTLIAMRMEDSGIYVCEGVNLIGKNRKEVELIVQEKPFTVEISPGPRIAAQIGDSVMLTCSVMGCESPSFSWRTQIDSPLSGKVRSEGTNSTLTLSPVSFENEHSYLCTVTCGHKKLEKGIQVELYSFPRDPEIEMSGGLVNGSSVTVSCKVPSVYPLDRLEIELLKGETILENIEFLEDTDMKSLENKSLEMTFIPTIEDTGKALVCQAKLHIDDMEFEPKQRQSTQTLYVNVAPRDTTVLVSPSSILEEGSSVNMTCLSQGFPAPKILWSRQLPNGELQPLSENATLTLISTKMEDSGVYLCEGINQAGRSRKEVELIIQVTPKDIKLTAFPSESVKEGDTVIISCTCGNVPETWIILKKKAETGDTVLKSIDGAYTIRKAQLKDAGVYECESKNKVGSQLRSLTLDVQGRENNKDYFSPE
